Reference: the DeepSol protein solubility set

Assay: soluble on expression in E. coli; label from the status in PepcDB or PDB records

Sequence	soluble on expression in E. coli
MSLSEAGHKFLAKLGKKRLRPGGKRATDWLIAEGGFSKEKRILEVACNRGTTAIELAQRFGCKITAVDMDAQALEVAKKSAGTAGVAHLISFERANAMKLPYQDASFDIVINEAMLTMQADQAKKKCVMEYLRVLKPGGLLLTHDVLLKEAKESIRQELSQAIHVNVGPLTQDGWEQVMIESGYCDVKALTGEMTLMKLSGMIYDEGLLGTLKICVNACKKENRKQFLTMYKMFAKNKQKLGFIAMASYKSSEGHHHHHH	soluble
MSLSGIINNREYRQKVLKEIILELHNGKSVDEVRKRFQELIKGVSTKEISEMEAQLIKEGMKVEEIQRLCDVHAAVFKGSIDQIHHPEKEEGHPVSVLKKENEAVKNYIQSHLTPNLEEIKKSDSHSTRLKLMENISMLFDLDKHYSRKENLIFPYLEKYGITAPPKVMWGVDDEIREALKECKEVINSANKTPNEITEKVESTLKRIEEMIFKEESILLPMCIDTFSEDEWLDIESESDEIGYCLISPSEKWKPKRENVEEKEKSKLANENSEGYIKFDTGILRVNELSAILDTLPLDITFVDKDGTVKYFSGGSERIFARTRAVIGRKVQNCHPPASVHIVEKVVEDLKSGKKDHEDFWLHMGELYVFIRYYAVKDNKGEFIGVLEVTQNIKEIQEITGEKRLIEEGHHHHHH	soluble
MSLSHYTVGELANHLGVTVRTLQYYDRKGLLTAERATESNRRYYNDDHIQQLQLIFLLKQFGCTLDEIKTLLYEDSDMQTLKAMLQLHKKKLETSIHDQTKALKHLNNVDQYISSHSSAPINHLSDIDKAVKQSTTLKSEGHHHHHH	not soluble
MSLSIPFDDSRGPYVLAMDIGSTASRGGLYDASGCPIKGTKQRESHEFTTGEGVSTIDADQVVSEITSVINGILNAADHHNIKDQIAAVALDSFASSLILVDGEGNALTPCITYADSRSAQYVEQLRAEIDEEAYHGRTGVCLHTSYHPSRLLWLKTEFEEEFNKAKYVMTIGEYVYFKLAGITGMATSIAAWSGILDAHTGELDLTILEHIGVDPALFGEIRNPDEPATDAKVVDKKWKHLEEIPWFHAIPDGWPSNIGPGAVDSKTVAVAAATSGAMRVILPSVPEQIPSGLWCYRVSRDQCIVGGALNDVGRAVTWLERTIIKPENLDEVLIREPLEGTPAVLPFFSGERSIGWAASAQATITNIQEQTGPEHLWRGVFEALALSYQRVWEHMGKAGAAPERVIASGRVSTDHPEFLAMLSDALDTPVIPLEMKRATLRGTALIVLEQLEPGGTRATPPFGTTHQPRFAHHYSKARELFDALYLKLVEGHHHHHH	soluble
MSLSLENFGNFLTLDEKHSFIKKYFKEFYTKDFKLFASKDKHYRTRAELSFYHENDTLFYAMFDPKSKKKYIIEYLDFADEKICAFMPRLLEYLRQDNKLKEKLFGVEFLTTKQELSITLLYHKNIEDIKSNLENLSNILHINLIARSKGKKLIFKTENLRQTLNIQDRKIFYEFNNDCFIQPNTAINEKMITWVCEILNTQKRMDLLELYCGYGNFTLALAPFFFKILATEISKSNINFALKNCELNNTTNIHFARLSSEELSLAIKKEREFFRLKDIRLDDFNFSHVLVDPPRAGLDKSVIDLIKKYGNIIYISCNPMTLKENLKELSLTHRVEEFALFDQFVNTPHLECGVFLSKVEGHHHHHH	soluble
MSLSLPLFYAPDIEQSDRLPDDEAGHILRVLRMQAGDRLRLTDGRGSFFDAVIETADRKSCYVSVCGQESWQKPWRDRITIAIAPTKQSERMEWMLEKLVEIGVDEVVFIESEHSERRRIKAERLERIAISAMKQSLKASFPVIRVNIPIQTVIADTPKAAVRLIAYVDEAVRAEITQGRGYPSDFYHVGQDVLILIGPEGDFSPSEVESALLAGFAPVSLGESRLRTETAGLVACQWIHTLQACYRIGEGHHHHHH	soluble
MSLSLQQIDQIISILNKQSKPYDWVMQEFAKVEELKNFDLDLETFELLGLGLTLNKDNIFTLKTRTTKIKDEIFCIVDIESTGGVSKGEILEIGAVKIQNSKEIGRFQSFVKVKEIPKNITELTGITYEMVENASSLAKVLSDFRLFLKDSIFVAHNVRFDYSFISKALNECGFGILLNRRICTIEFAQCCIESPKYKLEVLKEFLGVENMHHRALDDALAAAEIFKYCLGKLPYHIKTTEELINFTKTARIKEGHHHHHH	soluble
MSLSLYDSAHSLDGKSGWDTPVFSMKDSMDRNPMVTEAWEALCQSQVYFRGKPVGTIAAYDHASEEVLNYDQVFVRDFVPSALAFLMNGEPEIVKNFLLKTLHIQGQDKMIDKFKLGDGAMPASFKVLHNPIKKTDTIIADFGESAIGRVAPVDSGFWWIILLRAYTKSTGDHSLAERPECQKGMRLILSLCLSEGFDTFPTLLCADGCSMVDRRMGIYGYPIEIQALFFMALRSALSMLKHDSEGKEFMEKIVKRLHALSFHMRSYFWLDFQQLNDIYRYKTEEYSHTAVNKFNVIPDSIPDWIFDFMPLRGGYFVGNVSPARMDFRWFALGNCIAILSSLATPEQSMAIMDLIEARWEELVGEMPLKICYPAMESHEWGIVTGCDPKNTRWSYHNGGSWPVLLWLLTAASIKTGRPQIARRAIELAEARLLKDGWPEYYDGKSGRFIGKQARKSQTWSIAGYLVAKMMMDDPTHVGMISMEEEKHMKPPLRRSSSWT	soluble
MSLSMDTVNYRPSAYPAISLIEADYRQFAFERHYHLDIHIGLITQGVQRFYHQGAWHQVGQGGVVLMSPDELHDGHAHSNTGYQVQVFSIEPEWLQQTLEANQIEQVIGFEQLIVQDPTLFHSLQQLHHLLRQDNLSQLAKDCLPYQGFAPLLERYSYLKQPTVKPLGQHNLALLKEWVLSQLDQPIRLEQLAQLCQLSPTQFQRHFKAQTGLTPYAWLRRLRLEQAMKLLQSGKPGTDVAYQVGFYDQAHFSKAFKATYGLSPSLITRFSEGHHHHHH	not soluble
MSLSPAELHADSIVIDGLIIAKWNRELFEDMRKGGLTAANCTVSVWEGFQATVNNIAASNKLIRDNSDLVIPVRSTADIRKAKEQGKTGILYGFQNAHAFEDQIGYVEVFKQLGVGIVQMCYNTQNLVGTGCYERDGGLSGFGREIVAEMNRVGIMCDLSHVGSKTSEEVILESKKPVCYSHCLPSGLKEHPRNKSDEELKFIADHGGFVGVTMFAPFLKKGIDSTIDDYAEAIEYVMNIVGEDAIGIGTDFTQGHGHDFFEWLTHDKGYARRLTNFGKIVNPLGIRTVGEFPNLTETLLERGMPERVVRKVMGENWVRVLRDVEGHHHHHH	not soluble
MSLSQLDKTCVIIGASHAGVNCAFALRKEGWQGGIVLYDADPSLPYHRPPLSKAYLTSDAGIEKYLLKSAESYEKDNITLRMGIQVSAIDRTHKILTLNDGNTRSYDKLVIATGARPIIPPTKGIKTAKNLYPLRNAADVQNIRQALESNENKRVVIVGAGYIGLEIAASLKNRGAQVTVLEREDRVLARVTAPEMSAYFQQLHVSQGVEIVTNKNVVSIAPRNGFNTITCSDGTQYDADVIVMGVGIRVNLELAEDAGLNISNGICVNAAGQTNDEDIYAIGDCTLHYNPHYNRHIRLESVQNAVDQAKVTAAAICGKEVAYNAIPWFWSDQYDVKLQIVGLSSGYNELLIRREDDGRKFSSWYFKDDELLAVDAINNAKAYMIATKFIKERRKVDKIKLTDASVALSPLNLSAESHEGHHHHHH	soluble
MSLSQLFIVYLGGSAPKANIELHDVQFVIADNIEGTYEQLRQNWFGTVKDLHLDSYKAVKGADGYQISIQDKPQNSDKKLYFVNLGGYDASKLNELHEFALFVAADNTEAKEKAKQSLLKNSLHQHKDNLMEVDDCLELSKVDGKYIHLTPSDKEYDLKPYWFGYRVIGEGHHHHHH	soluble
MSLSQLVLILGDQLSPSIAALDGVDKKQDTIVLCEVMAEASYVGHHKKKIAFIFSAMRHFAEELRGEGYRVRYTRIDDADNAGSFTGEVKRAIDDLTPSRICVTEPGEWRVRSEMDGFAGAFGIQVDIRSDRRFLSSHGEFRNWAAGRKSLTMEYFYREMRRKTGLLMNGEQPVGGRWNFDAENRQPARPDLLRPKHPVFAPDKITKEVIDTVERLFPDNFGKLENFGFAEGHHHHHH	not soluble
